{"source": "IntAct's records for PubMed 31515488", "parents": {"B1": {"name": "Keratin, type I cytoskeletal 40 (Homo sapiens), Q6A162 (parent)", "chain": "MTSDCSSTHCSPESCGTASGCAPASSCSVETACLPGTCATSRCQTPSFLSRSRGLTGCLLPCYFTGSCNSPCLVGNCAWCEDGVFTSNEKETMQFLNDRLASYLEKVRSLEETNAELESRIQEQCEQDIPMVCPDYQRYFNTIEDLQQKILCTKAENSRLAVQLDNCKLATDDFKSKYESELSLRQLLEADISSLHGILEELTLCKSDLEAHVESLKEDLLCLKKNHEEEVNLLREQLGDRLSVELDTAPTLDLNRVLDEMRCQCETVLANNRREAEEWLAVQTEELNQQQLSSAEQLQGCQMEILELKRTASALEIELQAQQSLTESLECTVAETEAQYSSQLAQIQCLIDNLENQLAEIRCDLERQNQEYQVLLDVKARLEGEINTYWGLLDSEDSRLSCSPCSTTCTSSNTCEPCSAYVICTVENCCL"}, "B2": {"name": "Lymphotoxin-alpha (Homo sapiens), P01374 (parent)", "chain": "MTPPERLFLPRVCGTTLHLLLLGLLLVLLPGAQGLPGVGLTPSAAQTARQHPKMHLAHSTLKPAAHLIGDPSKQNSLLWRANTDRAFLQDGFSLSNNSLLVPTSGIYFVYSQVVFSGKAYSPKATSSPLYLAHEVQLFSSQYPFHVPLLSSQKMVYPGLQEPWLHSMYHGAAFQLTQGDQLSTHTDGIPHLVLSPSTVFFGAFAL", "partner": "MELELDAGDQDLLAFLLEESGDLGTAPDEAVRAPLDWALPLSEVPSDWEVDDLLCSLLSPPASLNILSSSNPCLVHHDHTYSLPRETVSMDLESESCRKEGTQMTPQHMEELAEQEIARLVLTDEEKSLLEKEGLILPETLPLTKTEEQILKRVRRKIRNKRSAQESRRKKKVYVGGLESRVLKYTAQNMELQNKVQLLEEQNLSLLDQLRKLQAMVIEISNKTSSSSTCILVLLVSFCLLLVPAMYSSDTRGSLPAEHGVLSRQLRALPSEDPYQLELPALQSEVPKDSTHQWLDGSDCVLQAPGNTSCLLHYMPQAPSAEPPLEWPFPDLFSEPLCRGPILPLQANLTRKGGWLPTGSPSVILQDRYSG"}, "B3": {"name": "EF-hand domain-containing protein 1 (Homo sapiens), Q5JVL4 (parent)", "chain": "MVSNPVHGLPFLPGTSFKDSTKTAFHRSQTLSYRNGYAIVRRPTVGIGGDRLQFNQLSQAELDELASKAPVLTYGQPKQAPPADFIPAHVAFDKKVLKFDAYFQEDVPMSTEEQYRIRQVNIYYYLEDDSMSVIEPVVENSGILQGKLIKRQRLAKNDRGDHYHWKDLNRGINITIYGKTFRVVDCDQFTQVFLESQGIELNPPEKMALDPYTELRKQPLRKYVTPSDFDQLKQFLTFDKQVLRFYAIWDDTDSMYGECRTYIIHYYLMDDTVEIREVHERNDGRDPFPLLMNRQRVPKVLVENAKNFPQCVLEISDQEVLEWYTAKDFIVGKSLTILGRTFFIYDCDPFTRRYYKEKFGITDLPRIDVSKREPPPVKQELPPYNGFGLVEDSAQNCFALIPKAPKKDVIKMLVNDNKVLRYLAVLESPIPEDKDRRFVFSYFLATDMISIFEPPVRNSGIIGGKYLGRTKVVKPYSTVDNPVYYGPSDFFIGAVIEVFGHRFIILDTDEYVLKYMESNAAQYSPEALASIQNHVRKREAPAPEAESKQTEKDPGVQELEALIDTIQKQLKDHSCKDNIREAFQIYDKEASGYVDRDMFFKICESLNVPVDDSLVKELIRMCSHGEGKINYYNFVRAFSN"}, "B4": {"name": "A-kinase anchor protein 17A (Homo sapiens), Q02040 (parent)", "chain": "MAAATIVHDTSEAVELCPAYGLYLKPITKMTISVALPQLKQPGKSISNWEVMERLKGMVQNHQFSTLRISKSTMDFIRFEGEVENKSLVKSFLACLDGKTIKLSGFSDILKVRAAEFKIDFPTRHDWDSFFRDAKDMNETLPGERPDTIHLEGLPCKWFALKESGSEKPSEDVLVKVFEKFGEIRNVDIPMLDPYREEMTGRNFHTFSFGGHLNFEAYVQYREYMGFIQAMSALRGMKLMYKGEDGKAVACNIKVSFDSTKHLSDASIKKRQLERQKLQELEQQREEQKRREKEAEERQRAEERKQKELEELERERKREEKLRKREQKQRDRELRRNQKKLEKLQAEEQKQLQEKIKLEERKLLLAQRNLQSIRLIAELLSRAKAVKLREQEQKEEKLRLQQQEERRRLQEAELRRVEEEKERALGLQRKERELRERLLSILLSKKPDDSHTHDELGVAHADLLQPVLDILQTVSSGCVSATTLHPLGGQPPAGAPKESPAHPEADGAPKSVNGSVAEEAPCKEVQSSCRVVPEDGSPEKRCPGGVLSCIPDNNQQPKGIPACEQNVSRKDTRSEQDKCNREPSKGRGRATGDGLADRHKRERSRARRASSREDGRPRKERRPHKKHAYKDDSPRRRSTSPDHTRSRRSHSKDRHRRERSRERRGSASRKHSRHRRRSERSRSRSPSRHRSTWNR"}, "B5": {"name": "Syntenin-2 (Homo sapiens), Q9H190 (parent)", "chain": "MSSLYPSLEDLKVDQAIQAQVRASPKMPALPVQATAISPPPVLYPNLAELENYMGLSLSSQEVQESLLQIPEGDSTAVSGPGPGQMVAPVTGYSLGVRRAEIKPGVREIHLCKDERGKTGLRLRKVDQGLFVQLVQANTPASLVGLRFGDQLLQIDGRDCAGWSSHKAHQVVKKASGDKIVVVVRDRPFQRTVTMHKDSMGHVGFVIKKGKIVSLVKGSSAARNGLLTNHYVCEVDGQNVIGLKDKKIMEILATAGNVVTLTIIPSVIYEHMVKKLPPVLLHHTMDHSIPDA"}}, "data": [{"variants_of": "B1", "settings": "with wt1_human WT1, P19544", "values": [{"variant": "C349R", "effect of a mutation on the interaction": "with no effect"}, {"variant": "T388M", "effect of a mutation on the interaction": "with no effect"}, {"variant": "F85S", "effect of a mutation on the interaction": "with no effect"}, {"variant": "T153M", "effect of a mutation on the interaction": "with no effect"}, {"variant": "T37A", "effect of a mutation on the interaction": "with no effect"}, {"variant": "C265Y", "effect of a mutation on the interaction": "with no effect"}]}, {"variants_of": "B1", "settings": "with k2c4_human KRT4, P19013", "values": [{"variant": "C349R", "effect of a mutation on the interaction": "with no effect"}, {"variant": "T388M", "effect of a mutation on the interaction": "with no effect"}, {"variant": "F85S", "effect of a mutation on the interaction": "with no effect"}, {"variant": "T153M", "effect of a mutation on the interaction": "with no effect"}, {"variant": "T37A", "effect of a mutation on the interaction": "with no effect"}, {"variant": "C265Y", "effect of a mutation on the interaction": "with no effect"}]}, {"variants_of": "B1", "settings": "with mta1_human MTA1, Q13330", "values": [{"variant": "C349R", "effect of a mutation on the interaction": "with no effect"}, {"variant": "T388M", "effect of a mutation on the interaction": "with no effect"}, {"variant": "F85S", "effect of a mutation on the interaction": "with no effect"}, {"variant": "T153M", "effect of a mutation on the interaction": "with no effect"}, {"variant": "T37A", "effect of a mutation on the interaction": "with no effect"}, {"variant": "C265Y", "effect of a mutation on the interaction": "with no effect"}]}, {"variants_of": "B1", "settings": "with prs8_human PSMC5, P62195", "values": [{"variant": "C349R", "effect of a mutation on the interaction": "with no effect"}, {"variant": "T388M", "effect of a mutation on the interaction": "with no effect"}, {"variant": "F85S", "effect of a mutation on the interaction": "with no effect"}, {"variant": "T153M", "effect of a mutation on the interaction": "with no effect"}, {"variant": "T37A", "effect of a mutation on the interaction": "with no effect"}, {"variant": "C265Y", "effect of a mutation on the interaction": "with no effect"}]}, {"variants_of": "B1", "settings": "with snai1_human SNAI1, O95863", "values": [{"variant": "C349R", "effect of a mutation on the interaction": "with no effect"}, {"variant": "T388M", "effect of a mutation on the interaction": "with no effect"}, {"variant": "F85S", "effect of a mutation on the interaction": "with no effect"}, {"variant": "T153M", "effect of a mutation on the interaction": "with no effect"}, {"variant": "T37A", "effect of a mutation on the interaction": "with no effect"}, {"variant": "C265Y", "effect of a mutation on the interaction": "with no effect"}]}, {"variants_of": "B2", "settings": "with creb3_human CREB3, O43889", "values": [{"variant": "T60N", "effect of a mutation on the interaction": "with no effect"}]}, {"variants_of": "B3", "settings": "with itf2_human TCF4, P15884", "values": [{"variant": "R159W", "effect of a mutation on the interaction": "with no effect"}, {"variant": "F229L", "effect of a mutation on the interaction": "with no effect"}, {"variant": "Y102C", "effect of a mutation on the interaction": "with no effect"}]}, {"variants_of": "B3", "settings": "with ikzf3_human IKZF3, Q9UKT9", "values": [{"variant": "R159W", "effect of a mutation on the interaction": "with no effect"}, {"variant": "F229L", "effect of a mutation on the interaction": "with no effect"}, {"variant": "Y102C", "effect of a mutation on the interaction": "with no effect"}]}, {"variants_of": "B4", "settings": "with cep70_human CEP70, Q8NHQ1", "values": [{"variant": "R298K", "effect of a mutation on the interaction": "with no effect"}, {"variant": "R675C", "effect of a mutation on the interaction": "with no effect"}]}, {"variants_of": "B5", "settings": "with zch10_human ZCCHC10, Q8TBK6", "values": [{"variant": "V182M", "effect of a mutation on the interaction": "with no effect"}, {"variant": "G242R", "effect of a mutation on the interaction": "disrupting interaction strength"}, {"variant": "G225R", "effect of a mutation on the interaction": "disrupting interaction strength"}]}, {"variants_of": "B5", "settings": "with t23o_human TDO2, P48775", "values": [{"variant": "V182M", "effect of a mutation on the interaction": "with no effect"}, {"variant": "G242R", "effect of a mutation on the interaction": "disrupting interaction strength"}, {"variant": "G225R", "effect of a mutation on the interaction": "disrupting interaction strength"}]}, {"variants_of": "B5", "settings": "with lyar_human LYAR", "values": [{"variant": "V182M", "effect of a mutation on the interaction": "with no effect"}, {"variant": "G242R", "effect of a mutation on the interaction": "disrupting interaction strength"}, {"variant": "G225R", "effect of a mutation on the interaction": "disrupting interaction strength"}]}, {"variants_of": "B5", "settings": "with ytdc1_human YTHDC1, Q96MU7", "values": [{"variant": "V182M", "effect of a mutation on the interaction": "disrupting interaction strength"}, {"variant": "G242R", "effect of a mutation on the interaction": "disrupting interaction strength"}, {"variant": "G225R", "effect of a mutation on the interaction": "disrupting interaction strength"}]}, {"variants_of": "B5", "settings": "with FAM133A", "values": [{"variant": "V182M", "effect of a mutation on the interaction": "with no effect"}, {"variant": "G242R", "effect of a mutation on the interaction": "disrupting interaction strength"}, {"variant": "G225R", "effect of a mutation on the interaction": "disrupting interaction strength"}]}]}
